The text below walks through data of the supplement of paper PMC10567573.

± gives the standard deviation.

A short description of the series: protein stability index of a GFP-peptide fusion (GPS, HEK-293T) (PSI 1-6); higher = more stable.
Setting [1] is: treatment: DMSO, c terminus: a fixed tail appended.
Where [2] appears, read: treatment: MLN4924 1 uM, 8 h, c terminus: a fixed tail appended.
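Note: 24-mer peptide tiles fused after GFP, lentivirally expressed, FACS-sorted into six equal bins by GFP/DsRed ratio, decoded by Illumina sequencing, PSI is the read-weighted mean bin number.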

Regarding VYHIECFRCSVCSRQLLPGDEFSL [ISL2], the protein stability index is, setting by setting: under setting [1], 2.34 ± 0.14; under setting [2], 2.4 ± 0.23.
Turning to WADAAGEAVPEGPDGGGPWLEDEP [ZSWIM9], the protein stability index was 5.62 ± 0.34 under setting [1] and 5.26 ± 0.47 under setting [2].
Turning to WEEWQFLSPAQKDLYRDVMLENYS [ZNF649], the protein stability index worked out at 3.48 ± 0.35 under setting [1] and 3.6 ± 0.2 under setting [2].
With WEKVGSGGFGQVYKVRHVHWKTWL [RIPK4], the protein stability index under setting [2] is 2.24 ± 0.21.
Consider WEPFDWGRLLEALCREEPVVQGPD [FANCE], for which the protein stability index was determined as 3.001 ± 0.014 under setting [1] and 3.22 ± 0.23 under setting [2].
As for WFIHLVFVVLAFLTGVLCSYPNPN [TMEM192], the protein stability index under setting [1] was found to be 3.346 ± 0.002 and the protein stability index under setting [2] amounted to 2.89 ± 0.56.
WKERDEYITKVSEEVTRLGAQVKE [TRIM15] showed a protein stability index under setting [1] of 4.69 ± 0.23 and a protein stability index under setting [2] of 4.22 ± 0.42.
Regarding WLQKLCCPCCFGRDCLVLNQGYLS [PI4K2A], the protein stability index worked out at 2.4 ± 0.45 under setting [1] and 2 ± 0.24 under setting [2].
In the case of WNPDARYSEHFLQEAKLLHWNGRH [GLT8D2], the protein stability index runs as follows: under setting [1], 2.81 ± 0.21; under setting [2], 2.67 ± 0.27.
On the same counts, the results for YANGGLNYSYRGYGALSSNLQPPA [NOL4L] are 2.49 ± 0.36 and 2.94 ± 0.35.
The corresponding values for YDDDIDDEDEEEEDADCYDDDDSG [UBE2R2] are 5.58 ± 0.11 and 5.61 ± 0.24.
The corresponding values for YEDGTELTEDYFPSVPDNAELVLL [DFFB] are 3.52 ± 0.36 and 3.7 ± 0.23.
As to YEDIRRENPVGTFHCSMSPGNLEK [PTPN9], the protein stability index under setting [1] amounted to 4.58 ± 0.23 and the protein stability index under setting [2] came out at 4.73 ± 0.13.
Take YEFHLEFLDLVKPEPVYKLTQRQV [HACD3]: the protein stability index stood at 2.54 ± 0.63 under setting [1] and 2.12 ± 0.076 under setting [2].
The corresponding values for YERPNVETIKCVVVGDNAVGKTRL [RHOBTB1] are 3.71 ± 0.23 and 3.86 ± 0.21.
The corresponding values for YFFLCQPFREILCKKLHIPLKAQN [P2RY14] are 2.62 ± 0.75 and 1.99 ± 0.25.
The corresponding values for YHYGVASCEACKAFFKRTIQGNIE [ESRRG] are 2.43 ± 0.19 and 2.65 ± 0.58.
In the case of YIQSRADTMQNIESTIVELGSIFQ [STX5], the protein stability index runs as follows: under setting [1], 2.33 ± 0.2; under setting [2], 2.62 ± 0.29.
On the same counts, the results for YISRKYFATRPGAIETAMEDLKGH [TPRG1] are 2.73 ± 0.41 and 2.81 ± 0.43.
The corresponding values for YLATAKVLITVEDVNDNSPELTIT [PCDHGA10] are 2.49 ± 0.2 and 2.44 ± 0.22.
For the sequence YLGLVRTHINAVVAKIQAKIPGAK [RTN1], the protein stability index reads like this: under setting [1], 2.35 ± 0.29; under setting [2], 2.06 ± 0.54.
The corresponding values for YLSQTDGAGDWREKEAKDLTELVQ [FUT8] are 4.52 ± 0.27 and 4.7 ± 0.29.
In the case of YPALASKNGKKWEILNFNQYYEAC [ACSBG2], the protein stability index reads like this: under setting [1], 2.68 ± 0.26; under setting [2], 2.81 ± 0.41.
The corresponding values for YPRYPDIHDLDLTLLNPRMIVDVT [CLCN6] are 2.48 ± 0.14 and 2.54 ± 0.22.
The corresponding values for YPWDENHCKEKRKTSLLDQLTNTS [NETO1] are 3.94 ± 0.21 and 4.07 ± 0.25.
For the sequence YRFHEHWRFVLQRLVFLAAFVVYL [TSN], the protein stability index is 2.86 ± 0.37 under setting [1] and 2.8 ± 0.96 under setting [2].
Turning to YRQKKRAEQEALTGECKELEKKNE [ATF4], the protein stability index runs as follows: under setting [1], 5.47 ± 0.24; under setting [2], 5.59 ± 0.19.
Turning to YSGAYGASVSDEELKRRVAEELAL [CHCHD3], the protein stability index came out at 3.11 ± 0.52 under setting [1] and 3.53 ± 1.1 under setting [2].
Turning to YTNSAGVPSLNAALMHTLQRHRDI [GOSR1], the protein stability index worked out at 2.79 ± 0.15 under setting [1] and 2.92 ± 0.23 under setting [2].
Regarding YVFFEKDFGDMHSYVRSRKRLREE [TRIB1], the protein stability index is, setting by setting: under setting [1], 2.46 ± 0.59; under setting [2], 2.66 ± 0.93.
On the same counts, the results for YVIVSGAQRKEERWDMADNEQVLT [YJU2B] are 2.88 ± 0.37 and 3.19 ± 0.24.
Consider YWEAWRHHCQGKDLTEWVDGCDF [SPACA3], for which the protein stability index stood at 2.84 ± 0.15 (treatment: DMSO, c terminus: native) and 3.04 ± 0.25 (treatment: MLN4924 1 uM, 8 h, c terminus: native).
